In patent US20140038292:

Tested on: T1, Tol1 transposase (851 aa) (Oryzias latipes)
T1 sequence: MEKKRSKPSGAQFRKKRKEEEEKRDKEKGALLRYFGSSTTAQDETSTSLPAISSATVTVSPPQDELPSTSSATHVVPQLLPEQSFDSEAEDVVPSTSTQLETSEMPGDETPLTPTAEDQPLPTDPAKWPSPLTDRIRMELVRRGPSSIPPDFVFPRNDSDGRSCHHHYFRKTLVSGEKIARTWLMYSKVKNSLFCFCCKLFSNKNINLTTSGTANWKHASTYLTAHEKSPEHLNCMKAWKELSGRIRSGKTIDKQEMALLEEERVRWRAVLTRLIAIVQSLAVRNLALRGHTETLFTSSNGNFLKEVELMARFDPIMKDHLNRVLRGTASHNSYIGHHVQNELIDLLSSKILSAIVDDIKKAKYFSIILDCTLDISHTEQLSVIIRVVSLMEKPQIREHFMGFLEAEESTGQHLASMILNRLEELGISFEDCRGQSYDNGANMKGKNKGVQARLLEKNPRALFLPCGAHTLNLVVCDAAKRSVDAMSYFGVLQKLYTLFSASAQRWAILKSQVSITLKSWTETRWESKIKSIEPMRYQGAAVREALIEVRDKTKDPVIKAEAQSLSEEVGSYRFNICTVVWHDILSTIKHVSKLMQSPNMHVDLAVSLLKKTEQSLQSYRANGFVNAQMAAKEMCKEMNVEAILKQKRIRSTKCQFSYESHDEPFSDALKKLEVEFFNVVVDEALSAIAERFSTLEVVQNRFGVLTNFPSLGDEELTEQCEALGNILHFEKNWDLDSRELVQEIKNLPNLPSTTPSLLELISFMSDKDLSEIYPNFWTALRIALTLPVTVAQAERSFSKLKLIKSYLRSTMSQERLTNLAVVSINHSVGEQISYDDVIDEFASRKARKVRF
Assay: cell_activity
Conditions: HeLa, donor 200 ng, helper 800 ng; 8 bp TSD at insertions

Work on “Tol1-tyr element (1855 bp), donor plasmid” yielded an activity (net G418-resistant colonies) of 3660.
